According to PMC3020918:

Molecular target: myc-Snc2p (S. cerevisiae) (UniProt P33328)
Assay: co-IP

Sequence of UniProt P33328 (P33328 whole entry): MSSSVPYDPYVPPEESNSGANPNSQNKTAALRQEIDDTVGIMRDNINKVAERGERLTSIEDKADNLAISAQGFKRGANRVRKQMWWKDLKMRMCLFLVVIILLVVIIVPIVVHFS

## Sso1/2p (endogenous) (from UniProt P32867 1-290) (natural protein)
  percent reduction of co-precipitation, wt cells at 37°C against 30°C: 10%
